Measurements as given in patent US20170253670A1 (Hoffmann-La Roche, published 2017).
Numbering of substitutions follows the chain as printed. “And” between values parts separate entries of the source, which are not always exact repeats. Equal entries are not always repeated.

Key:
[1] = target: T1, human FolR1 on cells (HeLa, SKOV3, HT-29, transfected HEK) (human, UniProt P15328 25-234); test: cell-based or functional assay
[2] = target: T2, human BCMA on myeloma cells (H929, U266) (human, UniProt Q02223 1-184); test: cell-based or functional assay
T2 sequence (looked up): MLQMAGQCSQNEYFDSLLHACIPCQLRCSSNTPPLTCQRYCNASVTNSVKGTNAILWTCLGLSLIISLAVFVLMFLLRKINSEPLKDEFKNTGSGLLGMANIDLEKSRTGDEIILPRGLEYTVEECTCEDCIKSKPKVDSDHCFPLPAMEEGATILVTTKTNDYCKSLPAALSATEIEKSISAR

[3] = target: T3, recombinant murine BCMA Fc(kih) (murine, UniProt O88472 2-49, biotinylated at the avi-tag of the Fc knob chain (not in the letters)); test: SPR Biacore, binder captured via anti-Fab, BCMA-Fc analyte
T3 construct: also called muBCMA Fc(kih); not shown: human IgG1 hinge-Fc(knob)-avi and the unfused Fc(hole) chain
T3 chain: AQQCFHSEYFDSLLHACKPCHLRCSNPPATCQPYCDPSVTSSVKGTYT

[4] = target: T4, recombinant human BCMA Fc(kih) (human, UniProt Q02223 4-53, biotin on avi-tag where coupled to SA chip ; biotin on the avi-tag of the Fc-knob chain where coupled to the SA chip (tag not in the letters)); test: as above
T4 construct: also called huBCMA Fc(kih); huBCMA; not shown: human IgG1 hinge-Fc(knob)-avi fused to the ECD, and the unfused Fc(hole) chain
T4 chain: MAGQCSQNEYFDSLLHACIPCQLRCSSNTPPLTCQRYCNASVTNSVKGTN

[5] = target: T1, human FolR1 on cells (HeLa, SKOV3, …); test: flow cytometry on HeLa cells, fluorescently labeled anti-human secondary antibody
Method: FIGS. 2A-C depict graphs summarizing Binding of FoLR1 IgG binders to HeLa cells. Binding of newly generated FolR1 binders to FolR1 expressed on HeLa cells were determined by flow cytometry. Bound antibodies were detected with a fluorescently labeled anti-human secondary antibody.
The identified binders were converted into a human IgG1 format and binding to FolR1 high expressing HeLa cells was addressed. […] In a next step the selected clones were tested for specificity to human FolR1 by excluding binding to the closely related human FolR2. HEK cells were transiently transfected with either human FolR1 or human FolR2 to address specificity. […] In parallel cross-reactivity of the FolR1 clones to cyno FolR1 was addressed by performing binding studies to HEK cells transiently transfected with cyno FolR1. […] These FolR1 TCBs were then used to compare induction of internalization after binding to FolR1 on HeLa cells.

[6] = target: T5, MUC1 SEA-avi-His, biotinylated (human, biotin on avi tag); test: SPR (ProteOn XPR36), biotinylated MUC1 on NLC chip, Fab as analyte, 1:1 Langmuir fit
T5 construct: E. coli derived; also called MUC1 antigen; SEA domain of human MUC1
T5 chain: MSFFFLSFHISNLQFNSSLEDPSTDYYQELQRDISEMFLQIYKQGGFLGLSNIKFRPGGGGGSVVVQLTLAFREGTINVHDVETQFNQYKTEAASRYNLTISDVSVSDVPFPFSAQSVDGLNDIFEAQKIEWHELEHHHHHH
Method: Immobilization of recombinant antigens (ligand): Antigens were diluted with PBST (10 mM phosphate, 150 mM sodium chloride pH 7.4, 0.005% Tween 20) to 10 μg/ml, then injected at 30 μl/minute at varying contact times, to achieve immobilization levels of about 200 response units (RU) in vertical orientation. […] Buffer (PBST) was injected along the sixth channel to provide an “in-line” blank for referencing. Association rate constants (kₒₙ) and dissociation rate constants (koff) were calculated using a simple one-to-one Langmuir binding model in ProteOn Manager v3.1 software by simultaneously fitting the association and dissociation sensorgrams. The equilibrium dissociation constant (KD) was calculated as the ratio koff/kₒₙ. Regeneration was performed in horizontal orientation using 10 mM Glycine, pH 1.5 at a flow rate of 100 ul/min for a contact time of 30 s.

[7] = target: T4, recombinant human BCMA Fc(kih); test: SPR Biacore, 1:1 Langmuir fit, as in Example 41
Method: The affinity of the interaction between anti-BCMA antibodies or BCMA-TCB CLC antibodies and recombinant human BCMA Fc(kih) was also determined. Anti-human Fab antibody (GE Healthcare) was directly coupled on a CM5 chip at pH 5.0 using the standard amine coupling kit (Biacore, Freiburg/Germany). The immobilization level was about 6500 RU. […] The dissociation was monitored for 120 or 400 seconds. Bulk refractive index differences were corrected for by subtracting the response obtained on reference flow cell. […] Kinetic constants were derived using the Biacore T200 Evaluation Software (v 1.0, Biacore AB, Uppsala/Sweden), to fit rate equations for 1:1 Langmuir binding by numerical integration (Table 41).
The anti-BCMA antibody comprising two heavy chains of 83A10 and two common light chains were produced using the general techniques for generation of bivalent IgG antibodies as described in the Material and general methods section.

T1 sequence (P15328 25-234): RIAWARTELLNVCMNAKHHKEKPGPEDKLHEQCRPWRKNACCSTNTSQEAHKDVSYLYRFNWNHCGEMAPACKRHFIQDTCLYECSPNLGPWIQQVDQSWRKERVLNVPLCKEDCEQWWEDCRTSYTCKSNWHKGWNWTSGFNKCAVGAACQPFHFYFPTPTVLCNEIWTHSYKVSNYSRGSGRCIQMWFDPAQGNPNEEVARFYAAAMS

B1: Mov19 FolR1 TCB 2+1 inverted (bispecific antibody)
chain 1: not shown
chain 2: QVQLQQSGAELVKPGASVKISCKASGYSFTGYFMNWVKQSHGKSLEWIGRIHPYDGDTFYNQNFKDKATLTVDKSSNTAHMELLSLTSEDFAVYYCTRYDGSRAMDYWGQGTTVTVSSASTKGPSVFPLAPSSKSTSGGTAALGCLVKDYFPEPVTVSWNSGALTSGVHTFPAVLQSSGLYSLSSVVTVPSSSLGTQTYICNVNHKPSNTKVDKKVEPKSCDKTHTCPPCPAPEAAGGPSVFLFPPKPKDTLMISRTPEVTCVVVDVSHEDPEVKFNWYVDGVEVHNAKTKPREEQYNSTYRVVSVLTVLHQDWLNGKEYKCKVSNKALGAPIEKTISKAKGQPREPQVCTLPPSRDELTKNQVSLSCAVKGFYPSDIAVEWESNGQPENNYKTTPPVLDSDGSFFLVSKLTVDKSRWQQGNVFSCSVMHEALHNHYTQKSLSLSPGK
chain 3: DIELTQSPASLAVSLGQRAIISCKASQSVSFAGTSLMHWYHQKPGQQPKLLIYRASNLEAGVPTRFSGSGSKTDFTLNIHPVEEEDAATYYCQQSREYPYTFGGGTKLEIKRTVAAPSVFIFPPSDEQLKSGTASVVCLLNNFYPREAKVQWKVDNALQSGNSQESVTEQDSKDSTYSLSSTLTLSKADYEKHKVYACEVTHQGLSSPVTKSFNRGEC
With B1 the “EC50 killing 24 h, SKov-3” value [1] was 0.00075 nM and the “EC50 killing 48 h, SKov-3” value [1] was 0.05 pM.

B2: pSCHLI333-TCB CLC (bispecific antibody)
heavy 1: not shown
heavy 2: QVQLVQSGAEVKKPGASVKVSCKASGYMFSSFGMSWVRQAPGQGLEWMGWIYPVGQGTWYAQKFQGRVTMTRDTSTSTVYMELSSLRSEDTAVYYCARVSYPPSHFDYWGQGTLVTVSSASTKGPSVFPLAPSSKSTSGGTAALGCLVKDYFPEPVTVSWNSGALTSGVHTFPAVLQSSGLYSLSSVVTVPSSSLGTQTYICNVNHKPSNTKVDKKVEPKSCDKTHTCPPCPAPEAAGGPSVFLFPPKPKDTLMISRTPEVTCVVVDVSHEDPEVKFNWYVDGVEVHNAKTKPREEQYNSTYRVVSVLTVLHQDWLNGKEYKCKVSNKALGAPIEKTISKAKGQPREPQVCTLPPSRDELTKNQVSLSCAVKGFYPSDIAVEWESNGQPENNYKTTPPVLDSDGSFFLVSKLTVDKSRWQQGNVFSCSVMHEALHNHYTQKSLSLSPGK
light: QAVVTQEPSLTVSPGGTVTLTCGSSTGAVTTSNYANWVQEKPGQAFRGLIGGTNKRAPGTPARFSGSLLGGKAALTLSGAQPEDEAEYYCALWYSNLWVFGGGTKLTVLGQPKAAPSVTLFPPSSEELQANKATLVCLISDFYPGAVTVAWKADSSPVKAGVETTTPSKQSNNKYAASSYLSLTPEQWKSHRSYSCQVTHEGSTVEKTVAPTECS
notes: also called pSCHLI333 BCMAxCD3 TCB
For B2, the “EC50 redirected T-cell killing, H929” value [2] was 980 pM and 0.19 µg/ml, the Kd [3] was 7190 nM and the Kd [4] was 164 nM.

B3: pSCHLI373-TCB CLC (bispecific antibody)
heavy 1: not shown
heavy 2: EVQLVESGGGLVKPGGSLRLSCAASGFSFSNSWMNWVRQAPGKGLEWVGTIRQKTYGGTTDYAAPVKGRFTISRDDSKNTLYLQMNSLKTEDTAVYYCTTGGLFGYWDYWGQGTLVTVSSASTKGPSVFPLAPSSKSTSGGTAALGCLVKDYFPEPVTVSWNSGALTSGVHTFPAVLQSSGLYSLSSVVTVPSSSLGTQTYICNVNHKPSNTKVDKKVEPKSCDKTHTCPPCPAPEAAGGPSVFLFPPKPKDTLMISRTPEVTCVVVDVSHEDPEVKFNWYVDGVEVHNAKTKPREEQYNSTYRVVSVLTVLHQDWLNGKEYKCKVSNKALGAPIEKTISKAKGQPREPQVCTLPPSRDELTKNQVSLSCAVKGFYPSDIAVEWESNGQPENNYKTTPPVLDSDGSFFLVSKLTVDKSRWQQGNVFSCSVMHEALHNHYTQKSLSLSPGK
light: B2 light
With B3 the “EC50 redirected T-cell killing, H929” value [2] was 1590 pM and 0.31 µg/ml.

B4: 19E5 IgG (antibody, V domains shown)
VH: QVQLVQSGAEVKKPGASVKVSCKASGYTFTSYYMHWVRQAPGQGLEWMGIINPSGGSTSYAQKFQGRVTMTRDTSTSTVYMELSSLRSEDTAVYYCARGEWRRYTSFDYWGQGTLVTVSS
VL: QAVVTQEPSLTVSPGGTVTLTCGSSTGAVTTSNYANWVQEKPGQAFRGLIGGTNKRAPGTPARFSGSLLGGKAALTLSGAQPEDEAEYYCALWYSNLWVFGGGTKLTVL
notes: human IgG1
B4 was tested, and the “EC50 (read off the curve)” value [5] was roughly 2 µg/mL.

B5: 20G6 IgG (antibody, V domains shown)
VH: B4 VH with R102I, T105Y, S106H
VL: B4 VL
notes: human IgG1
B5: binds [5].

B6: Mov19 IgG (antibody, V domains shown)
VH: QVQLQQSGAELVKPGASVKISCKASGYSFTGYFMNWVKQSHGKSLEWIGRIHPYDGDTFYNQNFKDKATLTVDKSSNTAHMELLSLTSEDFAVYYCTRYDGSRAMDYWGQGTTVTVSS
VL: DIELTQSPASLAVSLGQRAIISCKASQSVSFAGTSLMHWYHQKPGQQPKLLIYRASNLEAGVPTRFSGSGSKTDFTLNIHPVEEEDAATYYCQQSREYPYTFGGGTKLEIK
For B6, the “EC50 (read off the curve)” value [5] was roughly 1 µg/mL.

B7: 58D6 Fab (Fab, V domains shown)
VH: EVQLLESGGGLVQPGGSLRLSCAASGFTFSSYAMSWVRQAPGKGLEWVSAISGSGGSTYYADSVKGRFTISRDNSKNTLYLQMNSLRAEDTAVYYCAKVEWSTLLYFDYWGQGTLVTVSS
VL: B4 VL
notes: bacterial Fab
Binder B7 has a Kd [6] of 23.5 nM, a koff [6] of 0.000798 s⁻¹ and a kon [6] of 34000 M⁻¹ s⁻¹.

B8: 110A5 Fab (Fab, V domains shown)
VH: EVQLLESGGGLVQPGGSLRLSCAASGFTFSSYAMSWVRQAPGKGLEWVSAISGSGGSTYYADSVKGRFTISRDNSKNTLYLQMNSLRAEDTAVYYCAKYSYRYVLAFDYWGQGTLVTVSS
VL: B4 VL
notes: bacterial Fab
In the case of B8, the Kd [6] is reported as 134 nM, the koff [6] is reported as 0.00164 s⁻¹ and the kon [6] is reported as 12200 M⁻¹ s⁻¹.

B9: 19A4 IgG (antibody, V domains shown)
VH: B4 VH with E100G, R102I, Y104W, T105E, S106H
VL: B4 VL
notes: human IgG1
For B9, the “EC50 (read off the curve)” value [5] was roughly 3 µg/mL.

B10: 106D2 Fab (Fab, V domains shown)
VH: EVQLLESGGGLVQPGGSLRLSCAASGFTFRVYAMSWVRQAPGKGLEWVSGISETGSYTYYADSVKGRFTISRDNSKNTLYLQMNSLRAEDTAVYYCARYPYGFDYWGQGTLVTVSS
VL: B4 VL
notes: bacterial Fab
Binder B10 has a Kd [6] of 30 nM, a koff [6] of 0.000295 s⁻¹ and a kon [6] of 9800 M⁻¹ s⁻¹.

B11: 83A10-CLC anti-BCMA IgG (antibody, V domains shown)
VH: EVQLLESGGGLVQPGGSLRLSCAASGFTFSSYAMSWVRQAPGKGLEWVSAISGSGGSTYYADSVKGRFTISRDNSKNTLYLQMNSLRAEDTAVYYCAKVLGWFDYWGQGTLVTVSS
VL: QAVVTQEPSLTVSPGGTVTLTCGSSTGAVTTSNYANWVQEKPGQAFRGLIGGTNKRAPGTPARFSGSLLGGKAALTLSGAQPEDEAEYYCALWYSNLWVFGGGTKLTVLG
notes: two heavy chains of 83A10 and two common light chains
Binder B11 has a Kd [7] of 24.3 nM, a koff [7] of 0.00213 s⁻¹ and a kon [7] of 87800 M⁻¹ s⁻¹.
